Experimental data taken from US20060177880A1 (ROCHE DIAGNOSTICS OPERATIONS, published 2006).

Target: T1, ILEU (Leukocyte elastase inhibitor) (human, UniProt P30740 1-379)
T1 sequence: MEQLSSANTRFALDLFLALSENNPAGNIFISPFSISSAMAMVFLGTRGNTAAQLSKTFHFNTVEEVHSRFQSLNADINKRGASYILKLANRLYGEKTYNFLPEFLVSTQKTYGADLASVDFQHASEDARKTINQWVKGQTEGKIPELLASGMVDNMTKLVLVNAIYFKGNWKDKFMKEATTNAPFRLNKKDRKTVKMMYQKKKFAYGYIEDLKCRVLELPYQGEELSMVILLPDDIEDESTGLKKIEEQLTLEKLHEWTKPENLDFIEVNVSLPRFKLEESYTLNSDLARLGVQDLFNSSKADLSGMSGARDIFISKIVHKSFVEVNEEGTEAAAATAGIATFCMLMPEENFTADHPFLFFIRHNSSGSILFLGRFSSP
Assay: 2D gel (IEF and SDS-PAGE) of tumor tissue lysate, spot identified by MALDI-TOF mass spectrometry
Procedure: For IEF, 3 ml of the suspension are mixed with 12 ml sample buffer (7 M urea, 2 M thiourea, 2% CHAPS, 0.4% IPG buffer pH 6-9, 0.5% DTT) and incubated for 1 h. The samples are concentrated in an Amicon® Ultra-15 device (Millipore GmbH, Schwalbach, Germany) and the protein concentration is determined using the Bio-Rad® protein assay (Cat. No. 500-0006; Bio-Rad Laboratories GmbH, Munchen, Germany) following the instructions of the supplier's manual. To a volume corresponding to 1.5 mg of protein sample buffer is added to a final volume of 350 μl. This solution is used to rehydrate IPG strips pH 6-9 (Amersham Biosciences, Freiburg, Germany) overnight. The IEF is performed using the following gradient protocol: 1.) 1 minute to 500 V; 2.) 2 h to 3,500 V; 3.) 22 h at constant 3,500 V giving rise to 82 kVh. After IEF, strips are stored at −80° C. or directly used for SDS-PAGE. […]
Each patient is analyzed separately by image analysis with the ProteomeWeaver® software (Definiens AG, Germany, München). […] For each patient, 4 gels from the tumor sample are compared with 4 gels each from adjacent normal and stripped mucosa tissue and analyzed for distinctive spots corresponding to differentially expressed proteins. […]

B1: PRN3 (proteinase 3) (enzyme)
chain: IVGGHEAQPHSRPYMASLQMRGNPGSHFCGGTLIHPSFVLTAAHCLRDIPQRLVNVVLGAHNVRTQEPTQQHFSVAQVFLNNYDAENKLNDVLLIQLSSPANLSASVATVQLPQQDQPVPHGTQCLAMGWGRVGAHDPPAQVLQELNVTVVTFFCRPHNICTFVPRRKAGICFGDSGGPLICDGIIQGIDSFVIWGCATRLFPDFFTRVALYVDWIRSTLR
notes: Endogenous protein in lysates of human colorectal tumor tissue, with an apparent MW of ~28 kDa on the blot; also called uncomplexed PRN3
B1: binds.
